Target: APP-TAP-AICD (human, UniProt P05067 18-695)
Assay: streptavidin purification of APP-TAP-AICD from brain homogenate; iTRAQ 116/114, transgenic mouse 75 vs control mouse 72; MALDI-TOF/TOF;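 note: relative protein abundance in the transgenic versus control pull-down, limited to proteins with high quality scores and above-average enrichment, without full normalization across the whole measurement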
Text: Shown are all proteins that have high quality scores and are enriched above average in the m75 sample. Purified bait protein is given underlined. Other already known interaction partners of AICD or putatively biologically relevant proteins are given in bold. As full normalization over the entire measurement was not possible through the GPS explorer software suite, this conservative estimate had to be taken for determining the enriched vs. the non-enriched proteins. […] Ranking is in order of abundance ratio.

Binder	iTRAQ ratio
Triosephosphate isomerase (TIM) (Triose-phosphate isomerase) (enzyme, mouse, UniProt P17751 2-249, looked up) APTRKFFVGGNWKMNGRKKCLGELICTLNAANVPAGTEVVCAPPTAYIDFARQKLDPKIAVAAQNCYKVTNGAFTGEISPGMIKDLGATWVVLGHSERRHVFGESDELIGQKVSHALAEGLGVIACIGEKLDEREAGITEKVVFEQTKVIADNVKDWSKVVLAYEPVWAIGTGKTATPQQAQEVHEKLRGWLKSNVNDGVAQSTRIIYGGSVTGATCKELASQPDVDGFLVGGASLKPEFVDIINAKQ	4.61
Pyruvate kinase; isozyme M2 (enzyme, also called pyruvate kinase isozyme M1/2) not shown	4.71
Aspartate aminotransferase; cytoplasmic (Transaminase A) (enzyme, mouse, UniProt P05201 2-413, looked up) APPSVFAQVPQAPPVLVFKLTADFRDDPDPRKVNLGVGAYRTDESQPWVLPVVRKVEQKIANDNSLNHEYLPILGLAEFRSCASRLVLGDNSLAIRENRVGGVQSLGGTGALRIGADFLGRWYNGTDNKNTPIYVSSPTWENHNAVFSAAGFKDIRPYCYWDAEKRGLDLQGFLNDLENAPEFSIFVLHACAHNPTGTDPTPEQWKQIAAVMQRRFLFPFFDSAYQGFASGDLEKDAWAIRYFVSEGFELFCAQSFSKNFGLYNERVGNLTVVGKESDSVLRVLSQMEKIVRITWSNPPAQGARIVAATLSDPELFKEWKGNVKTMADRILTMRSELRARLEALKTPGTWSHITEQIGMFSFTGLNPKQVEYLVNEKHIYLLPSGRINMCGLTTKNLDYVATSIHEAVTKIQ	4.04
Synaptotagmin-1 (Synaptotagmin I) (SytI) (p65) (other, mouse, UniProt P46096 1-421, looked up, also called SYT1_MOUSE) MVSASRPEALAAPVTTVATLVPHNATEPASPGEGKEDAFSKLKQKFMNELHKIPLPPWALIAIAIVAVLLVVTCCFCVCKKCLFKKKNKKKGKEKGGKNAINMKDVKDLGKTMKDQALKDDDAETGLTDGEEKEEPKEEEKLGKLQYSLDYDFQNNQLLVGIIQAAELPALDMGGTSDPYVKVFLLPDKKKKFETKVHRKTLNPVFNEQFTFKVPYSELGGKTLVMAVYDFDRFSKHDIIGEFKVPMNTVDFGHVTEEWRDLQSAEKEEQEKLGDICFSLRYVPTAGKLTVVILEAKNLKKMDVGGLSDPYVKIHLMQNGKRLKKKKTTIKKNTLNPYYNESFSFEVPFEQIQKVQVVVTVLDYDKIGKNDAIGKVFVGYNSTGAELRHWSDMLANPRRPIAQWHTLQVEEEVDAMLAVKK	3.82
Creatine kinase; B chain (enzyme) not shown	5.32
L-lactate dehydrogenase B chain (LDH-B) (LDH heart subunit) (enzyme) not shown	3.99
Vacuolar ATP synthase catalytic subunit A; ubiquitous isoform (enzyme, also called VATA1_MOUSE) MDFSKLPKIRDEDKESTFGYVHGVSGPVVTACDMAGAAMYELVRVGHSELVGEIIRLEGDMATIQVYEETSGVSVGDPVLRTGKPLSVELGPGIMGAIFDGIQRPLSDISSQTQSIYIPRGVNVSALSRDIKWEFIPSKNLRVGSHITGGDIYGIVNENSLIKHKIMLPPRNRGSVTYIAPPGNYDASDVVLELEFEGVKEKFSMVQVWPVRQVRPVTEKLPANHPLLTGQRVLDALFPCVQGGTTAIPGAFGCGKTVISQSLSKYSNSDVIIYVGCGERGNEMSEVLRDFPELTMEVDGKVESIMKRTALVANTSNMPVAAREASIYTGITLSEYFRDMGYHVSMMADSTSRWAEALREISGRLAEMPADSGYPAYLGARLASFYERAGRVKCLGNPEREGSVSIVGAVSPPGGDFSDPVTSATLGIVQVFWGLDKKLAQRKHFPSVNWLISYSKYMRALDEYYDKHFTEFVPLRTKAKEILQEEEDLAEIVQLVGKASLAETDKITLEVAKLIKDDFLQQNGYTPYDRFCPFYKTVGMLSNMISFYDMARRAVETTAQSDNKITWSIIREHMGEILYKLSSMKFKDPVKDGEAKIKADYAQLLEDMQNAFRSLED	3.81
Fructose-bisphosphate aldolase C (Brain-type aldolase) (Aldolase 3) (enzyme, mouse, UniProt P05063 2-363, looked up) PHSYPALSAEQKKELSDIALRIVTPGKGILAADESVGSMAKRLSQIGVENTEENRRLYRQVLFSADDRVKKCIGGVIFFHETLYQKDDNGVPFVRTIQDKGILVGIKVDKGVVPLAGTDGETTTQGLDGLLERCAQYKKDGADFAKWRCVLKISDRTPSALAILENANVLARYASICQQNGIVPIVEPEILPDGDHDLKRCQYVTEKVLAAVYKALSDHHVYLEGTLLKPNMVTPGHACPIKYSPEEIAMATVTALRRTVPPAVPGVTFLSGGQSEEEASLNLNAINRCPLPRPWALTFSYGRALQASALNAWRGQRDNAGAATEEFIKRAEMNGLAAQGRYEGSGDGGAAAQSLYIANHAY	3.77
Clathrin light chain A (Lca) (other, mouse, UniProt O08585 1-235, looked up) MAELDPFGAPAGAPGGPALGNGVAGAGEEDPAAAFLAQQESEIAGIENDEAFAILDGGAPGRATRRAAGGPDAVDGVMNGEYYQESNGPTDSYAAISEVDRLQSEPESIRKWREEQTERLEALDANSRKQEAEWKEKAIKELEEWYARQDEQLQKTKANNRVADEAFYKQPFADLIGYVAAEEAFVNDIDESSPGTEWERVARLCDFNPKSSKQAKDVSRMRSVLISLKQAPLVH	3.98
Glutamine synthetase (Glutamate-ammonia ligase) (enzyme, mouse, UniProt P15105 2-373, looked up) ATSASSHLNKGIKQMYMSLPQGEKVQAMYIWVDGTGEGLRCKTRTLDCEPKCVEELPEWNFDGSSTFQSEGSNSDMYLHPVAMFRDPFRKDPNKLVLCEVFKYNRKPAETNLRHICKRIMDMVSNQHPWFGMEQEYTLMGTDGHPFGWPSNGFPGPQGPYYCGVGADKAYGRDIVEAHYRACLYAGVKITGTNAEVMPAQWEFQIGPCEGIRMGDHLWIARFILHRVCEDFGVIATFDPKPIPGNWNGAGCHTNFSTKAMREENGLKCIEEAIDKLSKRHQYHIRAYDPKGGLDNARRLTGFHETSNINDFSAGVANRGASIRIPRTVGQEKKGYFEDRRPSANCDPYAVTEAIVRTCLLNETGDEPFQYKN	3.76
Ubiquitin carboxyl-terminal hydrolase isozyme L1 (UCH-L1) (enzyme, mouse, UniProt Q9R0P9 1-220, looked up, also called UCHL1_MOUSE) MQLKPMEINPEMLNKVLAKLGVAGQWRFADVLGLEEETLGSVPSPACALLLLFPLTAQHENFRKKQIEELKGQEVSPKVYFMKQTIGNSCGTIGLIHAVANNQDKLEFEDGSVLKQFLSETEKLSPEDRAKCFEKNEAIQAAHDSVAQEGQCRVDDKVNFHFILFNNVDGHLYELDGRMPFPVNHGASSEDSLLQDAAKVCREFTEREQGEVRFSAVALC	4.68
ATP synthase gamma chain; mitochondrial precursor (enzyme, mouse, UniProt Q91VR2 26-298, looked up) ATLKDITRRLKSIKNIQKITKSMKMVAAAKYARAERELKPARVYGTGSLALYEKADIKAPEDKKKHLIIGVSSDRGLCGAIHSSVAKQMKNEVAALTAAGKEVMIVGVGEKIKGILYRTHSDQFLVSFKDVGRKPPTFGDASVIALELLNSGYEFDEGSIIFNQFKSVISYKTEEKPIFSLNTIATAETMSIYDDIDADVLQNYQEYNLANLIYYSLKESTTSEQSARMTAMDNASKNASDMIDKLTLTFNRTRQAVITKELIEIISGAAALD	3.98
Malate dehydrogenase; cytoplasmic (enzyme, mouse, UniProt P14152 2-334, looked up) SEPIRVLVTGAAGQIAYSLLYSIGNGSVFGKDQPIILVLLDITPMMGVLDGVLMELQDCALPLLQDVIATDKEEIAFKDLDVAVLVGSMPRREGMERKDLLKANVKIFKSQGTALEKYAKKSVKVIVVGNPANTNCLTASKSAPSIPKENFSCLTRLDHNRAKSQIALKLGVTADDVKNVIIWGNHSSTQYPDVNHAKVKLQGKEVGVYEALKDDSWLKGEFITTVQQRGAAVIKARKLSSAMSAAKAIADHIRDIWFGTPEGEFVSMGVISDGNSYGVPDDLLYSFPVVIKNKTWKFVEGLPINDFSREKMDLTAKELTEEKETAFEFLSSA	5.96
Phosphate carrier protein; mitochondrial precursor (PTP) (other, mouse, UniProt Q8VEM8 46-357, looked up) AVEEYSCEFGSMKYYALCGFGGVLSCGLTHTAVVPLDLVKCRMQVDPQKYKGIFNGFSITLKEDGVRGLAKGWAPTLIGYSMQGLCKFGFYEVFKALYSNILGEENTYLWRTSLYLASSASAEFFADIALAPMEAAKVRIQTQPGYANTLREAVPKMYKEEGLNAFYKGVAPLWMRQIPYTMMKFACFERTVEALYKFVVPKPRSECTKAEQLVVTFVAGYIAGVFCAIVSHPADSVVSVLNKEKGSTASQVLQRLGFRGVWKGLFARIIMIGTLTALQWFIYDSVKVYFRLPRPPPPEMPESLKKKLGLTE	4.61
Aspartate aminotransferase; mitochondrial precursor (Transaminase A) (enzyme, mouse, UniProt P05202 30-430, looked up) SSWWTHVEMGPPDPILGVTEAFKRDTNSKKMNLGVGAYRDDNGKPYVLPSVRKAEAQIAAKNLDKEYLPIGGLAEFCKASAELALGENNEVLKSGRFVTVQTISGTGALRVGASFLQRFFKFSRDVFLPKPSWGNHTPIFRDAGMQLQGYRYYDPKTCGFDFSGALEDISKIPEQSVLLLHACAHNPTGVDPRPEQWKEIASVVKKKNLFAFFDMAYQGFASGDGDKDAWAVRHFIEQGINVCLCQSYAKNMGLYGERVGAFTVVCKDAEEAKRVESQLKILIRPLYSNPPLNGARIAATILTSPDLRKQWLQEVKGMADRIISMRTQLVSNLKKEGSSHNWQHITDQIGMFCFTGLKPEQVERLTKEFSVYMTKDGRISVAGVTSGNVGYLAHAIHQVTK	3.51
Alpha enolase (2-phospho-D-glycerate hydro-lyase) (Non-neural enolase) (NNE) (enzyme, mouse, UniProt P17182 2-434, looked up) SILRIHAREIFDSRGNPTVEVDLYTAKGLFRAAVPSGASTGIYEALELRDNDKTRFMGKGVSQAVEHINKTIAPALVSKKVNVVEQEKIDKLMIEMDGTENKSKFGANAILGVSLAVCKAGAVEKGVPLYRHIADLAGNPEVILPVPAFNVINGGSHAGNKLAMQEFMILPVGASSFREAMRIGAEVYHNLKNVIKEKYGKDATNVGDEGGFAPNILENKEALELLKTAIAKAGYTDQVVIGMDVAASEFYRSGKYDLDFKSPDDPSRYITPDQLADLYKSFVQNYPVVSIEDPFDQDDWGAWQKFTASAGIQVVGDDLTVTNPKRIAKAASEKSCNCLLLKVNQIGSVTESLQACKLAQSNGWGVMVSHRSGETEDTFIADLVVGLCTGQIKTGAPCRSERLAKYNQILRIEEELGSKAKFAGRSFRNPLAK	3.9
Excitatory amino acid transporter 2 (Sodium-dependent glutamate/aspartate transporter 2) (other, mouse, UniProt P43006 1-572, looked up, also called EAA2_MOUSE; GLT-1) MASTEGANNMPKQVEVRMHDSHLSSDEPKHRNLGMRMCDKLGKNLLLSLTVFGVILGAVCGGLLRLASPIHPDVVMLIAFPGDILMRMLKMLILPLIISSLITGLSGLDAKASGRLGTRAMVYYMSTTIIAAVLGVILVLAIHPGNPKLKKQLGPGKKNDEVSSLDAFLDLIRNLFPENLVQACFQQIQTVTKKVLVAPPSEEANTTKAVISMLNETMNEAPEETKIVIKKGLEFKDGMNVLGLIGFFIAFGIAMGKMGEQAKLMVEFFNILNEIVMKLVIMIMWYSPLGIACLICGKIIAIKDLEVVARQLGMYMITVIVGLIIHGGIFLPLIYFVVTRKNPFSFFAGIFQAWITALGTASSAGTLPVTFRCLEDNLGIDKRVTRFVLPVGATINMDGTALYEAVAAIFIAQMNGVILDGGQIVTVSLTATLASIGAASIPSAGLVTMLLILTAVGLPTEDISLLVAVDWLLDRMRTSVNVVGDSFGAGIVYHLSKSELDTIDSQHRMQEDIEMTKTQSIYDDKNHRESNSNQCVYAAHNSVVIDECKVTLAANGKSADCSVEEEPWKREK	4.44
Glyceraldehyde-3-phosphate dehydrogenase (GAPDH) (enzyme) not shown	4.54
